Laboratory results taken from article PMC13389190.

Molecular target: SpAB-T7 RNAP

Bamlanivimab (antibody), sequence (VH): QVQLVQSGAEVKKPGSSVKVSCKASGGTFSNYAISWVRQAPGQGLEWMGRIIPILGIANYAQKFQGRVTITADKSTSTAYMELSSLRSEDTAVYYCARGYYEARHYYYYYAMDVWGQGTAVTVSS
Bamlanivimab (antibody), sequence (VL): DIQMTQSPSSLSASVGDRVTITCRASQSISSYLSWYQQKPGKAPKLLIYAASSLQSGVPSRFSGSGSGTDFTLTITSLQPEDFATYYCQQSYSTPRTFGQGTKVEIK

**Q.** For Bamlanivimab (antibody), which MDC (minimal detectable concentration of Bamlanivimab in the ZF-RBD / SpAB-T7 RNAP sensor, 2.5% human serum) is on record?
**A.** Its MDC (minimal detectable concentration of Bamlanivimab in the ZF-RBD / SpAB-T7 RNAP sensor, 2.5% human serum) is 12.7 nM.
